US20150152192A1 (SAMSUNG ELECTRONICS, published 2015)
Positions count from the first letter of the chain named.

T1: mouse Ang2 (Accession # NP-031452) (R&D Systems) (mouse, UniProt O35608 19-496, limits assumed)
T1 construct: Bought protein; also called mAng2
T1 sequence (looked up): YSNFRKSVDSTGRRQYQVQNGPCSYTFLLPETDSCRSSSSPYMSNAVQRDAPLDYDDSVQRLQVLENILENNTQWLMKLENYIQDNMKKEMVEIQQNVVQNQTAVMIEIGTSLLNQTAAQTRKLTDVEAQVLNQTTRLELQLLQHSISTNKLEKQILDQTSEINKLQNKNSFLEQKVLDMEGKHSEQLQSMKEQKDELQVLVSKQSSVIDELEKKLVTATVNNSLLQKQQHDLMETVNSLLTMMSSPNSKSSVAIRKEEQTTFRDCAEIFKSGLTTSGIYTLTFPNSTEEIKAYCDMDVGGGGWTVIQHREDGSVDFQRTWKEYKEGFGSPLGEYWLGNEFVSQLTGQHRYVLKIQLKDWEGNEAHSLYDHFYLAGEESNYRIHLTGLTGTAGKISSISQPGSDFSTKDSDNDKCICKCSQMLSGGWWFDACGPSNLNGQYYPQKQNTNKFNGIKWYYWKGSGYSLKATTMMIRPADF

T2: human Ang2 polypeptide (R&D systems; Accession #O15123; SEQ ID NO: 172) (human, UniProt O15123 19-496)
T2 construct: Bought protein; also called hAng2; human Ang2 protein
T2 sequence: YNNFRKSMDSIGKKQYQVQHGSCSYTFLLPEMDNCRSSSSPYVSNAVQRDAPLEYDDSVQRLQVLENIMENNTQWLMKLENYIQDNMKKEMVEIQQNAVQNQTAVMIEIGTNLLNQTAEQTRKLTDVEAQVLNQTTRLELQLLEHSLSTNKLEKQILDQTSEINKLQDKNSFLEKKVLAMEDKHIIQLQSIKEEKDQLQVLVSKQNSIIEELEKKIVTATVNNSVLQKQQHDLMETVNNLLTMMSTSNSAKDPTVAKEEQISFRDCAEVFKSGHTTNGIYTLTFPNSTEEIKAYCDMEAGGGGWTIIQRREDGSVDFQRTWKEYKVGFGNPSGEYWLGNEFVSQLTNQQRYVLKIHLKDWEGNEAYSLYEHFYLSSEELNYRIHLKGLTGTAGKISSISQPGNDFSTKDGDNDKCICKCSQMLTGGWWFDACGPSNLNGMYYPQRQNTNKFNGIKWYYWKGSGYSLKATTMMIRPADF

B1: SAIT-ANG-2-AB-2-E6 (scFv form) (scFv, V domains shown)
VH: EVQLLESGGGLVQTGGSLRLSCAASGFTFSDYAMSWVRQAPGKGLEWVSAIYPDSGNKYYADSVKGRFTISRDNSKNTLYLQMNSLRAEDTAVYYCARHSSDPKVKSGYYDDGMDVWGQGTLVAVSS
VL: QSVLTQPPSASGTPGQRVTISCSGSSSNIGNNAVNWYQQLPGTAPKLLIYADSNRPSGVPDRFSGSKSGTSASLAISGLRSEDEADYYCGSWDYSLSGYVFGGGTKLTVLG
notes: scFv from a phage display library, partly purified from E. coli periplasm on Ni-NTA and detected with anti-HA
B2: SAIT-ANG-2-AB-4-F11 (scFv form) (scFv, V domains shown)
VH: EVQLLESGGGLVQTGGSLRLSCAASGFTFSDYAMSWVRQAPGKGLEWVSSIYPDDGNTYYADSVKGRFTISRDNSKNTLYLQMNSLRAEDTAVYYCAKHPVRLNLHPMYYYYGMDVWGQGTLVTVSS
VL: B1 VL with S23T, N35S, A51S, N54Q, G90A, S91T, G98A
notes: scFv from a phage display library
B3: SAIT-ANG-2-AB-4-F5 (scFv form) (scFv, V domains shown)
VH: EVQLLESGGGLVQPGGSLRLSCAASGFTFSDYDMSWVRQAPGKGLEWVSSISHGDSNKYYADSVKGRFTISRDNSKNTLYLQMNSLRAEDTAVYYCAKSSGIQESPPTYYYYGMDVWGQGTLVTVSS
VL: B1 VL with N31S
notes: as for B2
B4: SAIT-ANG-2-AB-8-A5 (scFv form) (scFv, V domains shown)
VH: EVQLLESGGGLVQPGGSLRLSCAASGFTFSDYYMSWVRQAPGKGLEWVSGIYPSGGSTYYADSVKGRFTISRDNSKNTLYLQMNSLRAEDTAVYYCARDPSTLTYAGFDYWGQGTLVTVSS
VL: B1 VL with A33Y, N35T, N54H, G90A, S91T
notes: as for B2
B5: SAIT-ANG-2-AB-4-C11 (scFv form) (scFv, V domains shown)
VH: EVQLLESGGGLVQPGGSLRLSCAASGFTFSDYAMSWVRQAPGKGLEWVSSIYPDDGNTYYADSVKGRFTISRDNSKNTLYLQMNSLRAEDTAVYYCARHTSHHTSIDGYYYYGMDGWGQGTLVTVSS
VL: B1 VL with S23T, A33D, N35S, A51S, N54K
notes: as for B2
B6: SAIT-ANG-2-AB-3-D3 (scFv form) (scFv, V domains shown)
VH: EVQLLESGGGLVQPGGSLRLSCAASGFTFSDYDMSWVRQAPGKGLEWVSGISSDDGNTYYADSVKGRFTISRDNSKNTLYLQMNSLRAEDTAVYYCARPTIDKYTLRGYYSYGMDVWGQGTLVTVSS
VL: B1 VL with S23T, N31S, A33Y, N35S, A51S, S53N, N54K, S91T, Y94D, S97N
notes: as for B2
B7: SAIT-ANG-2-AB-7-C9 (scFv form) (scFv, V domains shown)
VH: EVQLLESGGGLVQPGGSLRLSCAASGFTFSNYAMSWVRQAPGKGLEWVSAISSGGGNIYYADSVKGRFTISRDNSKNTLYLQMNSLRAEDTAVYYCAKSGIQPSPPSMSSAYAMDVWGQGTLVTVSS
VL: B1 VL with A33D, N35Y, D52N, N54H, S91T
notes: as for B2

Legend:
[1] = target: T1, mouse Ang2 (Accession # NP-031452) (R&D …); test: ELISA, antigen coated, scFv, anti-HA-HRP; 50% binding concentration (Kd)
Protocol: (§1) To measure binding of the antibodies prepared above with each antigen, ELISA was performed. A 96-well MaxiSorp™ flat-bottom plate (Nunc) was coated with 5˜20 μg/ml of human Ang2 and mouse Ang2 (Accession # NP_{—}031452) (both, R&D Systems). After that, the plate was washed five times with 0.05% (v/v) Tween-20-containing PBS and then blocked with 1% (v/v) BSA-containing PBS at a room temperature for 2 hours. The anti-Ang2 antibodies in their scFv forms prepared above were added to each well of the plate which was then allowed to react at a room temperature for 2 hours.
(§2) Thereafter, the plate was washed five times with 0.05% Tween-20-containing PBS and then, an HRP-conjugated anti-HA (HA-probe Antibody (F-7) HRP conjugated) antibody (Santacruz) diluted in 1% (v/v) BSA-containing PBS at 1:1,000 ratio (v/v) was added in the amount of 50 μl to each well to react at a room temperature for 1 hour, followed by washing five times with 0.1% (v/v) Tween-20-containing PBS. Finally, 100 μl of TMB substrate (cell signal) was added to each well of the plate to induce color development at a room temperature for 3 min and then, the reaction was ceased by the addition of 50 μl of 5N H₂SO₄ solution and OD450 values were measured on a plate reader (Molecular Devices).

[2] = target: T2, human Ang2 polypeptide (R&D systems; …); test: as above
Protocol: as §1, §2

Binder | Kd [1] | Kd [2]
B1 | 5.1 nM | 9.3 nM
B2 | 20.7 nM | 3 nM
B3 | 23.8 nM | 12.1 nM
B4 | 11.7 nM | 5.3 nM
B5 | 28.6 nM | 4.9 nM
B6 | 37.8 nM | 4.3 nM
B7 | 8.7 nM | 3.8 nM
